Tests used:
Test in all cases: cell-based or functional assay
HIV-1 Env of 3016.V5.c36 = HIV-1 Env of 3016.V5.c36 (HIV-1)
HIV-1 Env of WITO.33 = HIV-1 Env of WITO.33 (HIV-1)
HIV-1 Env of ZM109.4 = HIV-1 Env of ZM109.4 (HIV-1)
HIV-1 Env of TH976.17 = HIV-1 Env of TH976.17 (HIV-1)
HIV-1 Env of Q23.17 = HIV-1 Env of Q23.17 (HIV-1)
HIV-1 Env of ZM197.7 = HIV-1 Env of ZM197.7 (HIV-1)
HIV-1 Env of ZM53.12 = HIV-1 Env of ZM53.12 (HIV-1)
HIV-1 Env of Q168.a2 = HIV-1 Env of Q168.a2 (HIV-1)
HIV-1 Env of CAAN.A2 = HIV-1 Env of CAAN.A2 (HIV-1)
HIV-1 Env of ZM135.10a = HIV-1 Env of ZM135.10a (HIV-1)
HIV-1 Env of 96ZM651.02 = HIV-1 Env of 96ZM651.02 (HIV-1)
HIV-1 Env of MB539.2B7 = HIV-1 Env of MB539.2B7 (HIV-1)
HIV-1 Env of UG037.8 = HIV-1 Env of UG037.8 (HIV-1)
HIV-1 Env of Q769.d22 = HIV-1 Env of Q769.d22 (HIV-1)
HIV-1 Env of RHPA.7 = HIV-1 Env of RHPA.7 (HIV-1)
HIV-1 Env of CAP256.SU = HIV-1 Env of CAP256.SU (HIV-1)
HIV-1 Env of DU156.12 = HIV-1 Env of DU156.12 (HIV-1)
HIV-1 Env of MB201 = HIV-1 Env of MB201 (HIV-1)
HIV-1 Env of 191821.E6.1 = HIV-1 Env of 191821.E6.1 (HIV-1)
HIV-1 Env of RW020.2 = HIV-1 Env of RW020.2 (HIV-1)
HIV-1 Env of THRO.18 = HIV-1 Env of THRO.18 (HIV-1)
HIV-1 Env of REJO.67 = HIV-1 Env of REJO.67 (HIV-1)
HIV-1 Env of C1080.c3 = HIV-1 Env of C1080.c3 (HIV-1)
HIV-1 Env of CAP244.D3 = HIV-1 Env of CAP244.D3 (HIV-1)
HIV-1 Env of QH0692.42 = HIV-1 Env of QH0692.42 (HIV-1)
HIV-1 Env of CAP45.G3 = HIV-1 Env of CAP45.G3 (HIV-1)
HIV-1 Env of 6405.v4.c34 = HIV-1 Env of 6405.v4.c34 (HIV-1)
HIV-1 Env of AC10.29 = HIV-1 Env of AC10.29 (HIV-1)
HIV-1 Env of CNE3 = HIV-1 Env of CNE3 (HIV-1)
HIV-1 Env of BG505.w6m = HIV-1 Env of BG505.w6m (HIV-1)
HIV-1 Env of KER2008.12 = HIV-1 Env of KER2008.12 (HIV-1)
HIV-1 Env of SC422.8 = HIV-1 Env of SC422.8 (HIV-1)
HIV-1 Env of 0260.v5.c36 = HIV-1 Env of 0260.v5.c36 (HIV-1)
HIV-1 Env of PVO.04 = HIV-1 Env of PVO.04 (HIV-1)
HIV-1 Env of Q842.d12 = HIV-1 Env of Q842.d12 (HIV-1)
HIV-1 Env of ZM233.6 = HIV-1 Env of ZM233.6 (HIV-1)
HIV-1 Env of ZM214.15 = HIV-1 Env of ZM214.15 (HIV-1)
HIV-1 Env of TRJO.58 = HIV-1 Env of TRJO.58 (HIV-1)
HIV-1 Env of DU422.01 = HIV-1 Env of DU422.01 (HIV-1)
HIV-1 Env of ZM249.1 = HIV-1 Env of ZM249.1 (HIV-1)
HIV-1 Env of Q259.d2.17 = HIV-1 Env of Q259.d2.17 (HIV-1)
HIV-1 Env of CM244.ec1 = HIV-1 Env of CM244.ec1 (HIV-1)
HIV-1 Env of KER2018.11 = HIV-1 Env of KER2018.11 (HIV-1)
HIV-1 Env of DU172.17 = HIV-1 Env of DU172.17 (HIV-1)
HIV-1 Env of CAP210.E8 = HIV-1 Env of CAP210.E8 (HIV-1)
HIV-1 Env of Q461.e2 = HIV-1 Env of Q461.e2 (HIV-1)
HIV-1 Env of 6535.3 = HIV-1 Env of 6535.3 (HIV-1)
HIV-1 Env of TRO.11 = HIV-1 Env of TRO.11 (HIV-1)
HIV-1 Env of CAP256.PI = HIV-1 Env of CAP256.PI (HIV-1)

B1: CAP256-VRC26.02 (antibody, V domains shown)
VH: EVQLVESGGGVVQPGRSLRLSCAASQFSFGNYGMHWVRQAPGKGLEWVAAISFAGTKTNYADSVKGRFTISRDNSKNTVYLQMNSLRAEDTALYFCAKDIREYECEYWTSDYYDFGRPQPCIDSRGVVGTFDVWGQGTMVTVSS
VL: QSVLTQPPSVSAAPGQKVTISCSGSNSNIGNKDVSWYQQIPATAPKLLIYENNKRPSGISDRFSGSKSGTSATLAITGLQTGDEADYYCATWDGRVSVIGTGTNVIVLG
For B1, the “neutralization IC50” value (HIV-1 Env of 3016.V5.c36) was 0.057 mg/L, the “neutralization IC50” value (HIV-1 Env of WITO.33) was over 50 mg/L and the “neutralization IC50” value (HIV-1 Env of ZM109.4) was over 50 mg/L. For the same binder, the “neutralization IC50” value (HIV-1 Env of TH976.17) was over 50 mg/L, the “neutralization IC50” value (HIV-1 Env of Q23.17) was over 50 mg/L and the “neutralization IC50” value (HIV-1 Env of ZM197.7) was 1.97 mg/L. For the same binder, the “neutralization IC50” value (HIV-1 Env of ZM53.12) was 0.043 mg/L, the “neutralization IC50” value (HIV-1 Env of Q168.a2) was over 50 mg/L and the “neutralization IC50” value (HIV-1 Env of CAAN.A2) was over 50 mg/L. For the same binder, the “neutralization IC50” value (HIV-1 Env of ZM135.10a) was over 50 mg/L, the “neutralization IC50” value (HIV-1 Env of 96ZM651.02) was over 50 mg/L and the “neutralization IC50” value (HIV-1 Env of MB539.2B7) was over 50 mg/L. For the same binder, the “neutralization IC50” value (HIV-1 Env of UG037.8) was over 50 mg/L, the “neutralization IC50” value (HIV-1 Env of Q769.d22) was over 50 mg/L and the “neutralization IC50” value (HIV-1 Env of RHPA.7) was over 50 mg/L. The “neutralization IC50” value (HIV-1 Env of CAP256.SU) was 0.015 mg/L, the “neutralization IC50” value (HIV-1 Env of DU156.12) was over 50 mg/L and the “neutralization IC50” value (HIV-1 Env of MB201) was over 50 mg/L. For the same binder, the “neutralization IC50” value (HIV-1 Env of 191821.E6.1) was over 50 mg/L, the “neutralization IC50” value (HIV-1 Env of RW020.2) was over 50 mg/L and the “neutralization IC50” value (HIV-1 Env of THRO.18) was over 50 mg/L. For the same binder, the “neutralization IC50” value (HIV-1 Env of REJO.67) was over 50 mg/L, the “neutralization IC50” value (HIV-1 Env of C1080.c3) was over 50 mg/L and the “neutralization IC50” value (HIV-1 Env of CAP244.D3) was over 50 mg/L. The “neutralization IC50” value (HIV-1 Env of QH0692.42) was over 50 mg/L, the “neutralization IC50” value (HIV-1 Env of CAP45.G3) was over 50 mg/L and the “neutralization IC50” value (HIV-1 Env of 6405.v4.c34) was over 50 mg/L. The “neutralization IC50” value (HIV-1 Env of AC10.29) was over 50 mg/L, the “neutralization IC50” value (HIV-1 Env of CNE3) was over 50 mg/L and the “neutralization IC50” value (HIV-1 Env of BG505.w6m) was over 50 mg/L. For the same binder, the “neutralization IC50” value (HIV-1 Env of KER2008.12) was over 50 mg/L, the “neutralization IC50” value (HIV-1 Env of SC422.8) was over 50 mg/L and the “neutralization IC50” value (HIV-1 Env of 0260.v5.c36) was over 50 mg/L. The “neutralization IC50” value (HIV-1 Env of PVO.04) was 7.98 mg/L, the “neutralization IC50” value (HIV-1 Env of Q842.d12) was over 50 mg/L and the “neutralization IC50” value (HIV-1 Env of ZM233.6) was 0.701 mg/L. For the same binder, the “neutralization IC50” value (HIV-1 Env of ZM214.15) was over 50 mg/L, the “neutralization IC50” value (HIV-1 Env of TRJO.58) was over 50 mg/L and the “neutralization IC50” value (HIV-1 Env of DU422.01) was over 50 mg/L. The “neutralization IC50” value (HIV-1 Env of ZM249.1) was over 50 mg/L, the “neutralization IC50” value (HIV-1 Env of Q259.d2.17) was over 50 mg/L and the “neutralization IC50” value (HIV-1 Env of CM244.ec1) was 2.03 mg/L. For the same binder, the “neutralization IC50” value (HIV-1 Env of KER2018.11) was 0.18 mg/L, the “neutralization IC50” value (HIV-1 Env of DU172.17) was over 50 mg/L and the “neutralization IC50” value (HIV-1 Env of CAP210.E8) was 0.062 mg/L. The “neutralization IC50” value (HIV-1 Env of Q461.e2) was over 50 mg/L, the “neutralization IC50” value (HIV-1 Env of 6535.3) was over 50 mg/L and the “neutralization IC50” value (HIV-1 Env of TRO.11) was over 50 mg/L. For the same binder, the “neutralization IC50” value (HIV-1 Env of CAP256.PI) was over 50 mg/L.

From patent US20200199204A1 (UNITED STATES OF AMERICA AS REPRESENTED BY THE SECRETARY …, published 2020)
